From the DeepSol protein solubility set

Assay: soluble on expression in E. coli; label from the status in PepcDB or PDB records

Sequence | soluble on expression in E. coli
GPGSMSAHDSSAMALIAHMNDIEQQRRVLSMSQREQEAKIAFTTAEKEQLVQAAKAAEAEEAQLKDDLEVLATEQQQLELQKMEATDRLRRTQAEEALHTAAVEADLQALAKEKVLWHERAQDLESLRRSWEEDAATSSCIAALRQESEMLAPLKAEKTAVEDALAETMAAIEKVRAEQQARLTCLGSVGAPADAVQRSGLARALASMHGSALSDGNTATVDDDDTAAALEEEIKRADYEAAQVTARHGRTIAVLQREVDALSTRAGELQQLLSSIGASWQEVLSRTRDLQHCKETGLCRRCLT | soluble
MIAILTDKPNVGKEIARILGAHTREDGYMSGNGYMVTWTFGNMLSLAMPKDYGMDRPERGDFPINPAPFRLMVKHIKTDTGWIPDINAVLQLKVIEKVFDACESIIAATDASREGEMVFRYLYRYLECRKSYRRLWISSLTDEAVLEGMDNLRPGSLYDHMFLAADSRNKADWVLGLNASYALCQATGTGNNSLGRVQTPILAAISSRYRERENHIATDTFPVFISLCKNNTLLKMRCTEEFTDREAAARLYSDCKLAGHARVTAVSRQVREIEPPALYNLTELQKDANNYYGMTAGKSLEIAQKLYEKKLISYPRTAGRFLPRDVYDKLPRIMEKILNRKEFRPYVRSMGINIFDLPDKVVDEGQAAEHHAIIITDTYPEGLNREEMQLYMMIIGRMLEAFMPVCRAEYTTVDAVCAARNFRCHACRIIEKGWFGIFERESVIAGREYGFSPIPQLENGETAAVTGCSLIHRKDLTVSAYTDAELITYMDTAGLGTAATRTGILQTLIDRKYVRYSGKYIIPTRKGLYIYETVRNMKIAETALTSGWEAQLARMERGKLTQEEFMKGVLKLSREVTEDIFRKCER | not soluble
MSLGSIITLYSPVGGIGKSTIAIEMAKKLSDSNKKVLYLNLEDLQSTLVFFECSTSKNMSDFLYFIKERDENFKEVLKDIVLKDEESGINYFAPVDSVLDIEDLKVDDVKFMLQKLIEVNMYNYIIIDLSSTFNINYKTIFEMSSKIIVPIGQDKLSSVKLQNFLKQLDNLENFSFIQNKYKDNLETIIPHVLLREKKPIIQKIYYDEALESVSSLIYLKNRASTFLRCIDELIMKLLEGHHHHHH | soluble
MEDKKDALISKTISMLLDNGFAVADISGQFSASFDIIARRNIERYVLKVLYNIDTLKPTTAYQLAKVAKFLRSTATIVGEKAGGGPLEDGVIYYRHGIPISSLDTFRDYINGEKPYIYSGPGGFYVKINGEALREMRMKMSLSIGYLSHYLGVSRRSVSLYENGSSATIDVFLKLQEIIKSDLVDHTDLFKIIPDNFQEEERVDDVYIQMLLDILERIGLDTKPAYRMPFDILARDEEVVSLIASLLSEEADKTKIEIMKKISSVLEDDAFLISKHSTTRENINGCPVINIVDLEKMTSKDELLRMLEKRAR | not soluble
MSLGHIIVTGAGSGLGRALTIGLVERGHQVSMMGRRYQRLQQQELLLGNAVIGIVADLAHHEDVDVAFAAAVEWGGLPELVLHCAGTGEFGPVGVYTAEQIRRVMESNLVSTILVAQQTVRLIGERGGVLANVLSSAAQVGKANESLYCASKWGMRGFLESLRAELKDSPLRLVNLYPSGIRSEFWDNTDHVDPSGFMTPEDAAAYMLDALEARSSCHVTDLFIGRNEGHHHHHH | soluble
MGSDKIHHHHHHMATLLTLLLLFATPIAIRAEEFVWPEPSNAIERKFEKAALTSDNAACSKIGGEILRKGGNSIDASIASMFCLGVVNPQSSGIGGGFLMTYFDQKSGDCYSIDARETAPAAASRDMFLNDSDGSKYGFKAAGTPGEIAGYWHIFKKFGSGKVTWKELVQPSVKLAREGHPVSPYLATVMKVKERHFRLFPSVKASSIKLSMFYRHWINPETNDTYQSGDLLKRPKLAKTLERLGNSPNPVQLFYHGEMAKTLAKEFQEGGGLITEQDLANYKVREYVNSNSNDHFRGTLTMCGGPPPSSFGVTQLIVSAMSKLFPEGHKDDIYNDPKVLHKYIEAMKFAYAQRTLLGDHDFVKGALELSKNLTTPEYTQWVIDRMTDKAQSSKNYGGIAQYVPPDHGTSHVSAMDQYGNGVSATTTINRWFGAAVESSEYGILWNDEMDDFSTPGMENGFGFAPSETNFIEPGKRPMSSMSPMVIFDHVTKKVRMVIGGSGGSKIISALAKSIVRSLIFHDSIKKAIDAPMIHNQFTPDITQLDDEFPINMKNILESEYLQKFRNTTGFEGIIQGVNVLNDGIYACGDYRRKTDQEPSGF | not soluble
MAQGNQQIDNQVLHHLRQKFPEVPEDVVCECVLQNKSDLAACCEYLTKVSPRFLYSEGSQSLTDLRNHMTQLNLGVSQNTHGAVQRDAVGMNGSRTLAPSVSDGPLNVPSALSEFYQPETPSVPTHTPASLSMESTRKPQPPQHLGLYQVGGKGHAPPQAPRFNPITVTLAPNTGRNTPTSLHIHGGPQSGLNSPNSIYIRPYVTQPGSTRQVQCRAQYSPTSQPAQQIYQITHPAAPQSSWSQHQTSHVYMPISSPTNTHTHTRFTCVCARVRMPVCLIHGNGR | not soluble
YYPKIAEEVYLATLDNGMSLSIIKKKGFIEKAAFLSTNFGALDNRFYIDGKLQTYPAGIAHFLEHKLFEDDQGRDVTLDFVKLGADVNAFTTLDRTTYYFSTIDHFEESLELLLKFTSEFTSSEDTVNHEKRIIEQEINMYQDDPDYRVYLGCLQSLYPNTILGQDIAGSIDSIKKITTKDLKNNFDYFYRPENCHLVLIGNFDIEQIYRFVKETRSEFTISHKTVEK | not soluble
MSLNTPLAERLRPKKLEDYLSQHHLVGENGSLQQALKAGIIPSLILWGPPGIGKTTLATIIAEESKRPFYTLSAINSGVKDIREVIDKAKQSGGLFTQKNPILFIDEIHRFSKSQQDSLLGAVERGWVTLVGATTENPSFEVIPALLSRCQVYILKPFEKKDLILLLNRAINTDEILKKKNITLLETEALLRLSGGDARKLLNIFELIVTTENDKDVVVTNDMVLSKVQQNIVRYDKTGEQHYDIISAFIKSIRGSDPNAAVYWLARMIEGGEDVKFIARRLIIAAAEDIGNANPTALVIANNCFQAVTTIGYPEARIILSQCVTYLASSPKSNAAYMAIGKAQQLVKQTGDLSVPLPLRNAPTKLMKEIGYGNDYKYSHDYPGNFVQQEFLPKEISGTTLYEPTDNTREKAIKENLKAKWGSKYNYEGHHHHHH | soluble
MTLISRIKQLAQSKQLTLAQLERNVGISNGQIRRWDTSSPKVENLLKIADYFSVSLDYLMGRTQQTEINHQAPMKSTQKELHIHITTEELTEEEITQLEEEANRFLRFRKFEMTNS | not soluble
MGSDKIHHHHHHVKEIRERGGTVKQQLITTHDGGRLALYSYGTVDAPGERRVVVIGGAFLTALIYRPFSEALSKGLGDGWAVDVYDRRGRGESTPQPADYSMATEIADVRTIMDATGARNLFGHSLGGSVALNAVQEFVGTAHQPDRLAVYDAAVNIDGSVDTSWLDSFERSVNEGNVPHALAKLKKGMQPGTAMARIPEPVLAGLMALVSRTKVNRLFKEVMPSGVGELKAVFDEADHVRDFSVLPPNTRFMVGSKSPRYYKVTAELLHRAVPGSVLQVSPKCVHASIPAAVKELVADISAYYKG | not soluble
SVGGGGSGGGLLENANPLIYERSGERPVTAGEEDEEVPDSIDAREIFDLIRSINDPEHPLTLEELNVVEQVRIQVSDPESTVAVAFTPTIPHCSMATLIGLSIKVKLLRSLPQRFKMDVHITPGTHASEHAVNKQLADKERVAAALENTHLLEVVNQCLSARS | soluble
MSGLTKIKPPKKARIGLYSAGLNTYWGQFEGLYDCLMGYNRFIEKRLSEWGEVFNFGMVDTEEKGREAGEFFNKNNVDIVFSHAATYYASATVLPVHQINNAPVIILNLQPTAEMAYDTTGTDRWLAQCVGCSIPEISNAFNRAGITFRAVNGLLGLTETPDFAKADEVTCERPEAVRAWKQIEEWCRAAAVKRNLQWARFGFLGGYYSGMLDMYSDFTMLQAQTGIDIEVLEMSDLDAYLKTVTEEEVQEKLKEIQDFFEISGDSPSDPIAKKPTEEQLTWSAKVAIAQEKMVRERNLDSVSYYYHGRDDYLEEVQSGFIVGFSLLNAQGIACAGEGDIKTALAMKIADICGTGGSFCEIVAADFNRDTMILGHDGPFHFAISKGKPILRGMGVYHGKRGSGVSVEAKVRPGAVTTLGVTQTGDGRLKFNISEGEAIDAPILLNGNTSTHIRFSQKPAEYMDRWFQEAPTHHLALSVGHNAELFKKIAELMDIPYAIY | soluble
MLSFPRPHSLVEGVVSAIRREIVSGRLPAESKMPTEHELADQFSVSRSVVREAISQLKADGVLVIRRGSGSFVSQTPGGTVFRLPGNEDHSAGLAKLFELRSWIEIQVASVAAQRHTDADLKRLSDAMLLMESNAGNFEISSKADCEFHCAIVAACKNEYLTAFHDFLGSQLIQARFMAWENSSKLEIGPSGAIREHREIFDAIAKRNPSEAAHCARMHLKAAALRLNIDLAD | not soluble
MGSDKIHHHHHHMFDWNDLRFFLELQRSGRLLTAAKRLNTTHSTVARHIESIEQSLGTALFVQHAQGYELTPSGQALLKHAEAMENVALLAQEEITQAITPLGKIRLGVTEGIGIMFFTPRMNALFERYPGLEVELVAVPRFVSILNREAEISIHLERPNADLLITRKLTDYRLALYASQAYLDRAPPLRHREDLARHSWIGYVDDLLFSQELLFLNSFCRVPNVVFRSTSVIAQQAAARAGLGIAVLPNYMARHDPTLVRVLPGETIQRSYWICTRRELHKSVRLRVVWDYLLALCAAEQSELLAE | not soluble
MGSDKIHHHHHHVTGSDTQLYPPMSTYLENHNIRYFNSFSAENLKSATPDLVVVGNAISRGNPDLEYALDQHMELISMPQLVRRELIGRHTSIVVAGTHGKTTTTSLVAWLLEAGGLLPGFLIGGIPENFGDGCRPSGLSEPGFFVTEGDEYDSAFFDKRSKFLHYRPDIAIINNVEFDHADIFDSLDDIKKSFRLLVNLVPSNGLLIVNADDPNSMEVSAKAFCRVETFGLNGNAEWTAADIATDTDGTSFTVVRDSEAIGRVKVPLFGNYNVMNALAATAAAIRAGVSFESVTRGLCSFKRPKRRMELVGEYAGGITLIEDFAHHPTAIRLTLGAIAEHYPGRRIIACFEPRSNTTSRNIFQHELSECFGDAAIVVLGKVNRPERYAPEERLDAALLCRELKANGKRVFAAGSENYPEDIVRFIEAEQQPGDVVVLLSNGSFSGLKEMLAESFQKNS | not soluble
MMTVAAEIRGSNPEKLLAPVLSAFWDEDESWTLDVYRRHEGYEGLRKALAMAPDDLIAYVKESGLRGRGGAGFPTGMKWQFIPQGDGKPHYLVVNADESEPGTCKDIPLLFANPHSLIEGIVIACYAIRSSHAFIYLRGEVVPVLRRLHEAVREAYAAGFLGENILGSGLDLTLTVHAGAGAYICGEETALLDSLEGRRGQPRLRPPFPAVAGLYACPTVVNNVESIASVPAILNKGKDWFRSMGSEKSPGFTLYSLSGHVAGPGQYEAPLGITLRQLLDMSGGMRPGHRLKFWTPGGSSTPMFTDEHLDVPLDYEGVGAAGSMLGTKALQCFDETTCVVRAVTRWTEFYAHESCGKCTPCREGTYWLVQLLRDIEAGKGQMSDLDKLNDIADNINGKSFCALGDGAASPIFSSLKYFREEYEEHITGRGCPFDPAKSTAWADRTEVKALEHHHHHH | not soluble
MARRISSQGKVTISVDEYSSNPTQAFTHYNINQSRFQPPHVHMVEPLPYDAPKSVGHTRFVCVSDTHSRTDGIQMPFGDVLLHTGDFTELGLPSEVKKFNDWLGGLPYEYKVVIAGNHELTFDKDFMAELIKQDYYRFPSVSKLRSEDFDDVQSLLTNCVYLQDSEVTIKGFRIYGAPWTPWFNGWGFNLPRGQSLLDKWNQIPEDVDILMTHGPPLGFRDWVPKELQRVGCVELLNTVQKRVRPKLHAYGGIHEGYGIMTDGYTTFINSSTCTVSFQPTNPPIIFDLPNPGNS | not soluble
